B1: SC04-271 (scFv)
scFv: EVQLVETGAEVKKPGESLRISCKGSGYTFNNYWIGWVRQMPGKGLEWMGIIYPGDSDTRYSPSVQGHVTISADKSINTAYLQWSSLKASDTAVYYCARRPGYDYGFYYFDYWGQGTLVTVSSGTGGSGGTGSGTGGSTQSALTQPRSVSGSPGQSVTISCTGTSSDVGGYNYVSWYQHHPGKAPKLMIYDVSNRPLGVSNRFSGSKSGNTASLTISGLQAEDEADYYCSSYTSSSTYVFGTGTHLTVLS
B2: SC04-283 (scFv)
scFv: EVQLVQSGAEVKKSGESLKISCKGSGYTFNTYWIGWVRQMPGKGLEWMGIIYPGDSDTIYSPSFQGQVTISADKSISTAYLQWSSLKASDSAMYYCARLTFRRGYSGSDSFLPPGDFDYWGQGTLVTVSSGTGGSGGTGSGTGGSTDIQMTQSPSTLSASVGDRVTITCRASQSISSWLAWYQQKPGKAPNLLIYAASSLQSGVPSRFSGSGSGTDFTLTISSLQPDDSATYYCQQYNTYPLTFGGGTKVEIKR
B3: SC04-325 (scFv)
scFv: QMQLVQSGAEVKKPGSSVKVSCKASGDTFSSYAISWVRQAPGQGLEWMGGIFGTASYAQKFQGRVTITADESTSTAYMELSSLRSEDTAVYYCARGGMATTPGLDYWGQGTLVTVSSGTGGSGGTGSGTGGSTDIQLTQSPDSLAVSLGERATINCKSSQSVLYSSNNKNYLAWYQQKPGQPPKLLIYWASTRESGVPDRFSGSGSGTDFTLTISSLQAEDVAVYYCQQYYSTPLTFGQGTKVEIKR
B4: SC04-299 (scFv)
scFv: EVQLVETGGGVVQPGRSLRLSCAASGFTFSGYAMHWVRQAPGKGLDWVAVISYDGSEKYSADSVKGRFTISRDNSKNTLYLQMNSLRAEDTAVYYCAKESGGPIWYKYYGVDVWGQGTTVTVSSGTGGSGGTGSGTGGSTSYVLTQPPSLSAAPRQRVTISCSGSSSNIGNYGVNWYQQLPGKAPKLLIYYDDLLPSGVSDRFSGSKSGTSASLAISGLQSEDEGDYYCAAWDDTLSAWVFGGGTKLTVLG
B5: SC04-353 (scFv)
scFv: EVQLVQSGGGVVQPGRSLRLSCAASGFTFSNYAMHWVRQAPGKGLEWVAVISYDGGNKYYADSVKGRFTMSRDNSKNTLYLQMNSLRAEDTAVYYCARDFWSGYSMVDSYYYYMDVWGKGTTVTVSSGTGGSGGTGSGTGGSTETTLTQSPGTLSLSPGERATLSCRASQSVSNTFLAWYQQKPGQAPRLLIYGASSRATGIPDRFSGSGSGTDFTLTISRLEPEDFAAYYCQQYGSSLTFGPGTKVDIKR
B6: SC04-311 (scFv)
scFv: EVQLVQSGGGVVQPGRSLRLSCVASGFTFSKDAMHWVRQAPGKGLEWVAVISYDGSDKHYADSVKGRVTISRDNSRKTLYLRMDSLRAEDTALYYCARGYNSGHYFDYWGQGTLITVSSGTGGSGGTGSGTGGSTQSVLTQPPSVSAAPGQKVTISCSGTSSNIGDNYVSWYQHLPGTAPKLLIYDNNKRPSGIPDRFSGSKSGTSATLGVTGLQTGDEADYYCGTWDSSLTAVVFGGGTKLTVLG
B7: SC04-361 (scFv)
scFv: EVQLVQSGAEVKKPGESLKISCKASGFSFSTYWIGWVRQMPGKGLEWMGIIYPADSDTRYSPSFQGQVTISADKSISTAYLQWSSLKASDTAMYYCARLRGPYYDFWNGYRETHDAFNVWGQGTMVTVSSGTGGSGGTGSGTGGSTDVVMTQSPDSLAVSLGERATINCKSSQNILDNSDNKNFLAWYQQKPGQPPKLLIYWASARESGVPDRFSGSGSGTDFTLTISSLQAEDVALYYCQQYYNTPITFGQGTRLEIKR
B8: SC04-374 (scFv)
scFv: QVTLKESGPTLVKPTQTLTLTCTFSGFSLSTSGVGVGWIRQPPGKALEWLAVIYWNDDKLYRPSLKSRLTITKDTSKNQVVLTMTKMDPVDTATYYCAHRHRYYDISGYYRLFSDAFDIWGQGTMVTVSSGTGGSGGTGSGTGGSTQSVVTQPPSVSGAPGQRVTISCTGSSSNIGAGYDVHWYQQLPGTAPKLLIYGNSNRPSGVPDRFSGSKSGTSASLAITGLQAEDEADYYCQSYDSSLSGSVFGGGTKLTVLG
B9: SC04-289 (scFv)
scFv: QMQLVQSGAEVKKPGESLRISCKGSGYSFTSNWITWVRQMPGKGLEWMGRIDPSDSYTNYSPSFQGHVTISADKSISTAYLQWSSLKASDTAMYYCARDVVGVGASDYYYYMDVWGKGTTVTVSSGTGGSGGTGSGTGGSTEIVLTQSPGTLSLSPGETATLSCRTSQSVSSSYLGWYQQKPGQAPRLLIYGASIRATGIPARFSGSGSGTEFTLTIDSLQSEDFAVYYCQQYNNWPPITFGQGTRLEIKR

Assays:
[1] = biological target: T1, West Nile virus strain USA99b (strain 385-99), whole virus (West Nile virus strain 385-99 (USA99b)); assay: phage ELISA on coated whole inactivated WNV
T1 construct: mature

[2] = biological target: T2, recombinantly expressed purified soluble WNV E protein (truncated form, strain 382-99) (West Nile virus strain 382-99, UniProt Q9Q6P4 291-696); assay: phage ELISA on coated recombinant soluble WNV E protein
T2 construct: also called recombinant WNV-E protein; truncated E protein
T2 sequence: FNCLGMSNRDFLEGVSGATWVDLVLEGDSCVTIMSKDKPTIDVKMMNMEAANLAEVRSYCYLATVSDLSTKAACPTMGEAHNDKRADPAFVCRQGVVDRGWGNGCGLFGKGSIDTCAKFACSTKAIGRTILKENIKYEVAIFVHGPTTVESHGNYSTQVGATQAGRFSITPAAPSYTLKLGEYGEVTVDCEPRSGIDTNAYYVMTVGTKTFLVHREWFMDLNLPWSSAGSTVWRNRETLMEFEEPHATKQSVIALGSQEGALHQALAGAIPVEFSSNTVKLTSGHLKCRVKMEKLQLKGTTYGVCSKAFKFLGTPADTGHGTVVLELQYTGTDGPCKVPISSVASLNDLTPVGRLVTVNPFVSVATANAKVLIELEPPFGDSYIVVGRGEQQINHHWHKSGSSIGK

Binder	OD 492 nm [1] [OD]	OD 492 nm [2] [OD]
B1	0.984	0.608
B2	1.21	0.074
B3		1.4
B4	1.07	0.072
B5		0.099
B6	1.04	1.54
B7		0.076
B8		1.36
B9	0.759	1.39

From US7537764
